According to US20190324022, “METHODS AND SYSTEMS FOR IDENTIFYING CANDIDATE NUCLEIC ACID AGENT” (APTITUDE MEDICAL SYSTEMS, INC., published 2019):

What was measured:
[1] = target: T1, HRP-2 (Histidine-Rich Protein 2) (UniProt P05227 P05227:22-332); experiment: flow; PBSMCT buffer; 0.124 nM in 10% human serum; conditions: tags: His-Tag; Fitzgerald Industries International
T1 sequence: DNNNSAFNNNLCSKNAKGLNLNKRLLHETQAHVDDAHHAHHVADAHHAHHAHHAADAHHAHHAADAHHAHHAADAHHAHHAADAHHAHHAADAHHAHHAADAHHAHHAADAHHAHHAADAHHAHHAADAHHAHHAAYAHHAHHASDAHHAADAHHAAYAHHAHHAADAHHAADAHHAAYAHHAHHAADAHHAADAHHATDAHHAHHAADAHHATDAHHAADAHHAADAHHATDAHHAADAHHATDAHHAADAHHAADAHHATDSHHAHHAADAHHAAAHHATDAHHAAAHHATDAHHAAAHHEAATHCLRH

TNF-alpha [2] = target: T2, TNF-alpha (Homo sapiens, UniProt P01375 P01375:77-233); experiment: flow; PBSMCT buffer (2.5 mM MgCl2, 1 mM CaCl2), room temperature, 3 h; 0.27 nM in serum; conditions: tags: biotinylated; R&D Systems; chain copies: 3 (inferred)
Description: (§1) MyOne carboxylic acid magnetic particles were coated with amino-modified candidate nucleic acid agents S01, B01, or VR11 (a previously published TNF-α candidate nucleic acid agent), or with mAb11 antibody (a commercial TNF-α antibody). […] The unbound TNF-α was washed away with PBSMCT, after which streptavidin-conjugated Alexa Fluor 488 was introduced and incubated for 15 minutes to label the bound TNF-α. The particles were washed with PBSMCT and median fluorescence intensities were quantified via FACS.
(§2) Sequences and relative affinities of all candidate nucleic acid agents are shown in the methods above.

[3] = target: NGAL (Neutrophil Gelatinase-Associated Lipocalin) (Homo sapiens, UniProt P80188 P80188:21-198); experiment: flow; PBSMCT buffer; 1.28 nM in 10% human serum; conditions: tags: His-Tag; R&D Systems
TNF-alpha [4] = target: T2, TNF-alpha; experiment: flow; PBSMCT buffer, room temperature, 3 h; conditions: tags: biotinylated; R&D Systems; chain copies: 3 (inferred)
Description: as §1, §2

T2 sequence (P01375 77-233, one chain of several): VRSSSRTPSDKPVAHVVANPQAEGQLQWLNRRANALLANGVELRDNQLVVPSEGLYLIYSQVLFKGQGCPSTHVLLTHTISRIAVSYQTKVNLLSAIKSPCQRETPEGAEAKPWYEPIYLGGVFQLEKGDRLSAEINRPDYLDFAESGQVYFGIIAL
Chain of NGAL (Neutrophil Gelatinase-Associated Lipocalin) (P80188 21-198, one chain of several): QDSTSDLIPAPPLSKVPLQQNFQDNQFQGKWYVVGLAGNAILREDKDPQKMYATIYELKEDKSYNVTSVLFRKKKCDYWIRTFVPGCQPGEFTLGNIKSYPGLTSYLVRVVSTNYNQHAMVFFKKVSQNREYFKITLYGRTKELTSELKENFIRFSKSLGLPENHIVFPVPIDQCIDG

B1: HRP-2-702 (ssDNA)
DNA: ATCCAGAGTGACGCAGCATTAAATAGGGGTTTGGCTTTGGGTCTGGCATATAGGAACAAGTTTGGACACGGTGGCTTAGT
modifications: immobilized on magnetic particles
Work on B1 yielded a Kd [1] of 128 pM.

B2: S01 (ssDNA)
DNA: ATCCAGAGTGACGCAGCATGCTTAAGGGGGGGGCGGGTTAAGGGAGTGGGGAGGGAGCTGGTGTGGACACGGTGGCTTAGT
modifications: 5'-amino, coupled to magnetic particles
For B2, the Kd (TNF-alpha [2]) was 190 pM.

B3: NGAL-05 (ssDNA)
DNA: GAATTCCGCCCTCGTCCCATCTCGGCTTGGTATGGCGGAGCTGGATAGTATAGTCGGAACACCAACCGAGAACGGAATTC
modifications: immobilized on magnetic particles
B3 showed a Kd [3] of 920 pM.

B4: B01 (ssDNA)
DNA: ATCCAGAGTGACGCAGCAGGTTAAGGTGTAGGTCCGGGTGGGGGGGTGGGTTGGGGGACTGGTGGACACGGTGGCTTAGT
modifications: 5'-amino, coupled to magnetic particles
B4 gave a Kd (TNF-alpha [4]) of 350 pM.
